Source: patent US11648290B2, “Cartilage-homing peptides” (FRED HUTCHINSON CANCER CENTER, priority 2015, dated 2023)

Legend:
[1] = Temperature stability of peptides (RP-HPLC); format: physicochemical
Experimental: This example illustrates peptide stability at high temperatures. Peptides were first suspended in 500 μl of ddH2O to a stock concentration of 2 mg/ml. Reactions were prepared by adding 6.25 μl of peptide from the stock solution with 95 μl ddH2O and incubated at room temperature, 70° C., or 100° C. for one hour in a Thermocycler. RP-HPLC was then run on samples using an Agilent 1260 HPLC equipped with a C-18 Poroshell 120B column. Sample were analyzed by a gradient method with a mobile phase of Solvent A (water with 0.1% TFA) and Solvent B (acetonitrile with 0.1% TFA). Solvent B was ramped up from 5%-45% of the mobile phase over a period of 10 minutes.
Peptides of SEQ ID NO: 28 and SEQ ID NO: 483 were analyzed by HPLC after incubation at room temperature (25° C.), 70° C., or 100° C. for one hour.

trypsin = target: T1, trypsin (Bos taurus, UniProt P00760); test: Peptide resistance to trypsin digestion (RP-HPLC); format: in vitro ADME
T1 construct: gene PRSS1
T1 sequence (P00760 24-246): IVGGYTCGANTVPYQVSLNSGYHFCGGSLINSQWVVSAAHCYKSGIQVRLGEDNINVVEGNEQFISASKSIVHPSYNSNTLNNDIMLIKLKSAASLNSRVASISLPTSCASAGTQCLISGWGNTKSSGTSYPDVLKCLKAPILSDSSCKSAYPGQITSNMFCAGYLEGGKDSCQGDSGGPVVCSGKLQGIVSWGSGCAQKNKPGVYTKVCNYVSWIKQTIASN
Experimental: Various peptides were suspended in 500 μl of ddH2O at a stock concentration of 2 mg/ml. Reactions were prepared with 12.5 μg peptide and 5 μg trypsin in 25 mM Tris/75 mM NaCl buffer (pH 7.0) and incubated for 30 minutes at 37.5° C. Reactions were quenched with 5 μg of soybean trypsin inhibitor and 10 mM dithiothreitol (DTT). Reversed phase HPLC (RP-HPLC) was run on samples using an Agilent 1260 HPLC equipped with a C-18 Poroshell 120B column. Sample were analyzed by a gradient method with a mobile phase of Solvent A (water with 0.1% TFA) and Solvent B (acetonitrile with 0.1% TFA). Solvent B was ramped up from 5%-45% of the mobile phase over a period of 10 minutes.

**Q.** For “GSISIGIKCSPSIDLCEGQCRIRKYFTGYCSGDTCHCSG [SEQ ID NO: 483]”, which “Stability after heat incubation (HPLC)” value ([1]; 70 C for 1 hour) is on record?
**A.** resistant to heat-induced degradation

**Q.** And the “Stability after heat incubation (HPLC)” value ([1]; 100 C for 1 hour)?
**A.** underwent various degrees of degradation

**Q.** What about the “Resistance to degradation by trypsin” value (trypsin; 12.5 ug peptide, 5 ug trypsin, pH 7.0, 30 minutes at 37.5 C) of the same sequence?
**A.** partially resistant to degradation by trypsin

**Q.** What about the “Resistance to reduction by DTT (FIG. 54)” value (trypsin; 10 mM DTT) of the same sequence?
**A.** partially resistant to reduction by DTT
